Results on one molecule are retold here after patent US20180258187A1 (Memorial Sloan Kettering, published 2018).

The target in this test is EBV-LMP2 peptide presented by HLA-A*02:02 on artificial antigen presenting cells (human; Epstein-Barr virus). Briefly: cell-based or functional assay.

B1: LMP2-38×CD3 bispecific antibody (bispecific antibody)
chain: QSALTQPASVSGSPGQSITISCTGTSSDVGSYNDVSWYQQHPGKAPKLMIYDVSNRPSGVSNRFSGSKSGNTASLTISGLQTEDEADYYCNSYTSSNTYVFGTGTKVTVLGQVQLVQSGAEVKKPGASVQVSCRASGYTITSYYMHWVRQAPGQGLEWMGVINPNAGSTRYAQKFQGRVTMSTDTSTSTVYMALSSLRSDDTAVYYCARGMYRMYDWGQGTLVTVSSDVQLVQSGAEVKKPGASVKVSCKASGYTFTRYTMHWVRQAPGQGLEWIGYINPSRGYTNYADSVKGRFTITTDKSTSTAYMELSSLRSEDTATYYCARYYDDHYCLDYWGQGTTVTVSSGEGTSTGSGGSGGSGGADDIVLTQSPATLSLSPGERATLSCRASQSVSYMNWYQQKPGKAPKRWIYDTSKVASGVPARFSGSGSGTDYSLTINSLEAEDAATYYCQQWSSNPLTFGGGTKVEIKHHHHHH
As for B1, the “EC50 (read off the curve), T cell cytotoxicity on peptide-pulsed aAPC expressing HLA-A*02:02” value is ~0.02 µg/mL.
